The supplement of paper PMC10724198
± gives the standard deviation of the averaged measurements.

Test system: Saccharomyces cerevisiae
Experiment: protein stability index of tFT-peptide fusion (C-terminal peptide) (PSI (0-1 scale)); higher = more stable (slower turnover)
Conditions: genetic background: wild type; temperature: 30 C
Procedure: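 Multiplexed protein stability (MPS) profiling in S. cerevisiae. Random 12-aa peptides (tFT-X12 library) are fused to the C-terminus of a sfGFP-mCherry tandem fluorescent timer, after mCherry and a GGGS linker. Cells are FACS-sorted into 8 mCherry/sfGFP bins and deep-sequenced. The protein stability index (PSI) is the read-weighted bin average, scaled from 0 (unstable) to 1 (stable). Only peptides with >10 reads are reported; cells were grown at 30 °C in SC-His with glucose.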
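Note: PSI is a weighted mean of sequencing reads over stability bins, variants kept only with over 10 reads, mCherry proximal and sfGFP distal, peptide attached via GGGS linker.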

| Sequence | protein stability index |
| --- | --- |
| CPNFYPARNSRL | 0.696 ± 0.2 |
| CPPPIPPSRPPS | 0.666 ± 0.067 |
| CPPSPFPPPLPR | 0.767 ± 0.094 |
| CPTHPLFLDSYV | 0.676 ± 0.026 |
| CQGHFAAKTEKI | 0.684 ± 0.019 |
| CQQCLATYNKGP | 0.708 ± 0.16 |
| CQQIKKNKKIKN | 0.661 ± 0.0026 |
| CQRDYLFKSRLP | 0.639 ± 0.069 |
| CQSRLPSTKNRH | 0.695 ± 0.015 |
| CQWGGWGVGVGG | 0.761 ± 0.061 |
| CQYSRRRRQELH | 0.65 ± 0.075 |
| CRGEGGRTVING | 0.634 ± 0.063 |
| CRGGWKCGQEKG | 0.635 ± 0.014 |
| CRGLRRSLGSIL | 0.682 ± 0.063 |
| CRGYRFLSEMKV | 0.645 ± 0.07 |
| CRLANEIMYDKN | 0.685 ± 0.014 |
| CRLPLSTIRARP | 0.724 ± 0.047 |
| CRPFGVSCHIRV | 0.739 ± 0.17 |
| CRRSSRIKHILL | 0.603 ± 0.029 |
| CRTIILCLLTNL | 0.498 ± 0.024 |
| CRVAFGFMSRFV | 0.729 ± 0.067 |
| CRWLAKRVKDSS | 0.629 ± 0.04 |
| CSAAVVQSSGSE | 0.67 ± 0.034 |
| CSCGRGRLARRL | 0.686 ± 0.13 |
| CSCPEDGILCIF | 0.62 ± 0.076 |
| CSDRRVAGGRGG | 0.676 ± 0.073 |

| Sequence | protein stability index |
| --- | --- |
| CSGLFLAPSYTQ | 0.713 ± 0.0096 |
| CSLEREKLQEQQ | 0.689 ± 0.022 |
| CSLTLPFFFGSL | 0.6771 ± 0.0026 |
| CSSARVLPLPVP | 0.661 ± 0.041 |
| CSSTCRCCAAFD | 0.641 ± 0.0086 |
| CSVDSRLSMLVL | 0.605 ± 0.044 |
| CTLMPPQSRRPP | 0.604 ± 0.057 |
| CTLVSREHFGFL | 0.685 ± 0.041 |
| CTRTREDPKIGI | 0.714 ± 0.024 |
| CTSCDQRLQRWG | 0.728 ± 0.033 |
| CTYHLPFYNVLF | 0.849 ± 0.19 |
| CVATTHASHTSP | 0.694 ± 0.033 |
| CVCAIVDGGTFG | 0.723 ± 0.07 |
| CVDSRRCCSCFC | 0.59 ± 0.074 |
| CVDTNIERSCVC | 0.66182 ± 0.00042 |
| CVGCVVGAGVTS | 0.684 ± 0.049 |
| CVGPGGACVRSG | 0.6894 ± 0.0017 |
| CVGSVEVGHSGI | 0.702 ± 0.02 |
| CVKKERCDSCRV | 0.715 ± 0.07 |
| CVLFSGLSVDGC | 0.7215 ± 0.004 |
| CVLFYPLLLPGV | 0.599 ± 0.035 |
| CVPLPCLPLPPS | 0.66 ± 0.012 |
| CVPLPPVLPRSC | 0.6607 ± 0.0018 |
| CVPLSAIFSAFT | 0.77 ± 0.022 |
| CVSYLVIFDRRY | 0.6742 ± 0.0043 |
| CVTFHKGRVFLR | 0.609 ± 0.031 |

| Sequence | protein stability index |
| --- | --- |
| CWQMTWSEGLGN | 0.687 ± 0.038 |
| CWRVGRERRGAG | 0.604 ± 0.013 |
| CWYRCLLSCLVL | 0.656 ± 0.033 |
| CYFKTIYRNMEY | 0.541 ± 0.032 |
| CYHIAHPSAYVP | 0.679 ± 0.041 |
| CYTGMIRSTPLS | 0.702 ± 0.064 |
| CYVCVDVCKRGC | 0.535 ± 0.18 |
| DACIVRFRDTYL | 0.688 ± 0.018 |
| DANRSPEYSLNG | 0.7169 ± 0.0062 |
| DCGYPESTGTAF | 0.656 ± 0.036 |
| DCPHGDSPRVVS | 0.628 ± 0.046 |
| DDSFNPWSVRVH | 0.7154 ± 0.006 |
| DDSQKLTNNNEG | 0.744 ± 0.013 |
| DEFRVALGSVTC | 0.65 ± 0.12 |
| DEGLLPLPAVIP | 0.746 ± 0.04 |
| DERLEIKERLEF | 0.739 ± 0.071 |
| DERTTLMRGNNV | 0.651 ± 0.017 |
| DFAGVCRWSLRG | 0.6446 ± 0.0025 |
| DFPPRPTPLSSL | 0.658 ± 0.033 |
| DFWSEFILLCSV | 0.6019 ± 0.0039 |
| DGAAGTGGAMGF | 0.669 ± 0.068 |
| DGAVRLGGGGLG | 0.664 ± 0.05 |
| DGCRFEFVPSGD | 0.629 ± 0.023 |
| DGDIIVVQINKL | 0.6471 ± 0.0039 |
| DGECVLGVFVGA | 0.706 ± 0.045 |
| DGGFAAPDVIGA | 0.682 ± 0.026 |

| Sequence | protein stability index |
| --- | --- |
| DGGSEIWGWDGT | 0.743 ± 0.12 |
| DGHSMFNRLIRS | 0.64232 ± 0.00017 |
| DGKAGRKGFWRK | 0.746 ± 0.023 |
| DGNDSILTKLPL | 0.714 ± 0.021 |
| DGRYVDSEIDNP | 0.714 ± 0.059 |
| DGSRSFSYSTAG | 0.642 ± 0.1 |
| DGVATLYGRDVE | 0.646 ± 0.033 |
| DGVIVACWCRRS | 0.66 ± 0.021 |
| DGVRGWVGVAGD | 0.698 ± 0.039 |
| DGVSRSHFQCVS | 0.708 ± 0.044 |
| DHLPSPRPRPPP | 0.7295 ± 0.0012 |
| DHSAPIIPMMKV | 0.6239 ± 0.0058 |
| DICYGVALSQVE | 0.676 ± 0.045 |
| DIDGKRLLGCWI | 0.6632 ± 0.00086 |
| DIKKLNKKAKIK | 0.777 ± 0.15 |
| DIRVFFNSREGN | 0.742 ± 0.022 |
| DKGTGYIVKRIT | 0.6872 ± 0.0044 |
| DKHGELFIVCKV | 0.54 ± 0.033 |
| DKKGRIKIKNRQ | 0.618 ± 0.026 |
| DKKKKTKINNKK | 0.698 ± 0.01 |
| DKWVRDCLTESR | 0.691 ± 0.014 |
| DLFSALWGEYVL | 0.741 ± 0.013 |
| DLGQVLSEASAS | 0.742 ± 0.034 |
| DLGRRRVGPKGA | 0.717 ± 0.024 |
| DLIHLVVIVPMV | 0.554 ± 0.035 |
| DLIKCPTNMVRL | 0.646 ± 0.068 |

| Sequence | protein stability index |
| --- | --- |
| DLKGCVTFCTSI | 0.638 ± 0.049 |
| DLLKFGPKVLHL | 0.6592 ± 0.0023 |
| DLLLGDCGVGWF | 0.647 ± 0.056 |
| DLMFSLFPLSFF | 0.704 ± 0.0076 |
| DLRDQDAQTTST | 0.692 ± 0.0088 |
| DLSPPLPPPAHP | 0.674 ± 0.044 |
| DNQQRQKKKNKK | 0.65 ± 0.013 |
| DNRKIRSEKITP | 0.69 ± 0.099 |
| DPCWLEFRESGG | 0.704 ± 0.12 |
| DPEDPPRAREPQ | 0.673 ± 0.038 |
| DPLKSFDAVRQD | 0.617 ± 0.06 |
| DPPSPLPRVSPP | 0.706 ± 0.068 |
| DPRPPRPDFRPS | 0.691 ± 0.072 |
| DPRPRLNCSYEH | 0.68 ± 0.014 |
| DPSMSNRDRRLP | 0.708 ± 0.036 |
| DQKFSPYRTPPF | 0.667 ± 0.058 |
| DQNRSTTVPRGY | 0.686 ± 0.075 |
| DQVDGLFTCSAR | 0.739 ± 0.027 |
| DRGCRRRCVGGG | 0.683 ± 0.011 |
| DRGGCRRAGSCQ | 0.69 ± 0.018 |
| DRHGLVGGWWAW | 0.7459 ± 0.0052 |
| DRLCAAPHYGTH | 0.599 ± 0.045 |
| DRLLLSPSPTPP | 0.739 ± 0.013 |
| DRLNLFSSFEGT | 0.721 ± 0.053 |
| DRLVGRVGGHGM | 0.755 ± 0.14 |
| DRNGAQAEISFV | 0.6 ± 0.041 |

| Sequence | protein stability index |
| --- | --- |
| DRPTPPPRSSPL | 0.739 ± 0.058 |
| DRREKAKNMTKG | 0.67 ± 0.025 |
| DRRTGRAGEMSP | 0.669 ± 0.064 |
| DRSRLWSHPCPG | 0.647 ± 0.0098 |
| DRSSVLSPFHPL | 0.76 ± 0.019 |
| DRTDTNVKWRKK | 0.696 ± 0.0077 |
| DRVMTLRLTVNP | 0.691 ± 0.03 |
| DRWGGDWMERGG | 0.749 ± 0.05 |
| DSKDLTPATQVS | 0.699 ± 0.013 |
| DSLWACVGSSAL | 0.771 ± 0.024 |
| DSMLACIHPSPI | 0.708 ± 0.0064 |
| DSNLAVHRWYIS | 0.573 ± 0.018 |
| DSPRSLALFRSC | 0.642 ± 0.028 |
| DSQGSVHPEAQE | 0.723 ± 0.012 |
| DSSAFVPATILD | 0.705 ± 0.026 |
| DSSKFYTPATLL | 0.693 ± 0.048 |
| DSSLCFAGLHNT | 0.705 ± 0.054 |
| DSSLHRLASLKT | 0.643 ± 0.075 |
| DSSLSRPGRLLP | 0.73 ± 0.012 |
| DSVSLPYVSRPL | 0.768 ± 0.041 |
| DTALMQAGSLFH | 0.651 ± 0.054 |
| DTPLIYSLKSEC | 0.7511 ± 0.0022 |
| DVLLKVDATKTP | 0.685 ± 0.032 |
| DVRVFQMLQGDI | 0.709 ± 0.012 |
| DVTKLVLSIDSC | 0.751 ± 0.052 |
